pKd: −log10 of the molar value.
Key:
streptavidin [1] = target: streptavidin (UniProt P22629); assay: release from M280 Streptavidin Dynabeads by 5 mM biotin or bis-biotin, fluorescence of supernatant
streptavidin [2] = target: streptavidin (UniProt P22629); assay: release from streptavidin beads by biotin
streptavidin [3] = target: streptavidin (UniProt P22629); assay: BLI (Octet), streptavidin biosensor tips, conjugate in solution, 25 C

Chain of streptavidin (P22629 37-163 limits assumed): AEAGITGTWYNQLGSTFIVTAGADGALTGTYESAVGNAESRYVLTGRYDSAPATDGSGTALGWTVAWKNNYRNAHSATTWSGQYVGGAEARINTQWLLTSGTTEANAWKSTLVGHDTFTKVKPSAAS

| Substance | Detachment (streptavidin [1]) [%] | Detach. (streptavidin [2]) [%] | pKd (streptavidin [3]) | koff (streptavidin [3]) [s⁻¹] | kon (streptavidin [3]) [M⁻¹ s⁻¹] |
| --- | --- | --- | --- | --- | --- |
| 18-Ab (goat anti-mouse IgG linked to biotin derivative 18) (antibody) | 85 |  |  |  |  |
| Biotin-Ab (antibody) |  | 0 | 14.23 | 1.43e-07 | 2.41e+07 |
| DSB-X-Ab (goat anti-mouse IgG linked to DSB-X) (antibody) | 16 |  |  |  |  |

— patent US20170174700A1
